The values below come from PMC2680711.

This test has as its target Alexa-546-labeled H3-H4(E63C) (UniProt P61830). Description: other fluorescence titration.

One may read the Kd as a measure of binding affinity in units of concentration. A high value points to lower affinity.

Chain of Vps75_(1−223) (Vps75 lacking the C-terminal acidic domain) (P53853 1-223): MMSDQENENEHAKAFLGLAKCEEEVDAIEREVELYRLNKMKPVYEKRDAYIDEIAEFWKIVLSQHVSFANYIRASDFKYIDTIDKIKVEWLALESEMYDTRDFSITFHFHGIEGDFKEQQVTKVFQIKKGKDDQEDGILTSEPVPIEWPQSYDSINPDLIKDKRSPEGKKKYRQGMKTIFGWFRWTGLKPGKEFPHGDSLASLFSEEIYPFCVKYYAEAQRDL

Substance “Vps75_(1−223) (Vps75 lacking the C-terminal acidic domain) (from UniProt P53853 1-223) (domain or fragment)” had a Kd of 13 nM.
Substance “Rtt109 (recombinant, purified) (from UniProt Q07794 1-436) (enzyme)” gave a dissociation constant (Kd) of 150 nM.
